According to patent publication US20230256092A1, “COMBINED USE OF ANTI-CCR8 ANTIBODY AND CHEMOTHERAPEUTIC AGENT” (Shionogi & Co., Ltd., priority 2020, published 2023):

Molecular target: T1, human CCR8 (Homo sapiens, UniProt P51685)
T1 construct: expressed in transfected cells; host or cells: 293 cells
Experiment: Neutralizing activity: inhibition of Ca2+ influx by 200 nM hCCL1 in human CCR8 expressing 293 cells (FLIPR), Test Example 6
Type: cell-based
Settings: Table 9; WT IC50/mutant IC50; humanized 10A11 heavy chain CDR mutants, IGKV4-1/IGHV3-73
Experimental: The antibody dilution diluted with a medium was added to human CCR8 expressing 293 cells in which a Ca^2+ indicator was incorporated beforehand, and Ca^2+ influx by addition of 200 nM hCCL1 (manufactured by BioLegend) was measured with FLIPR. […] The evaluation was performed at least three times, and IC50 was expressed as average±SD.

| Molecule | IC50 ratio |
| --- | --- |
| h10A11 (IGKV4-1/IGHV3-73 R50K): humanized 10A11 heavy chain CDR point mutant (antibody, V domains shown) VL: DIVMTQSPDSLAVSLGERATINCRSSKSLLHSNGNTYLYWYQQKPGQPPKLLIYRMSNLASGVPDRFSGSGSGTDFTLTISSLQAEDVAVYYCMQHLEYPLTFGQGTKLEIKRT VH: EVQLVESGGGLVQPGGSLKLSCAASGFAFNTYALYWVRQASGKGLEWVGKIRSKSNNYATYYADSVKDRFTISRDDSKNTAYLQMNSLKTEDTAVYYCTRARFYYSDYGYAMDYWGQGTLVTVSS | 0.12 |
| h10A11 (IGKV4-1/IGHV3-73 I51L): humanized 10A11 heavy chain CDR point mutant (antibody, V domains shown) VL: DIVMTQSPDSLAVSLGERATINCRSSKSLLHSNGNTYLYWYQQKPGQPPKLLIYRMSNLASGVPDRFSGSGSGTDFTLTISSLQAEDVAVYYCMQHLEYPLTFGQGTKLEIKRT VH: EVQLVESGGGLVQPGGSLKLSCAASGFAFNTYALYWVRQASGKGLEWVGRLRSKSNNYATYYADSVKDRFTISRDDSKNTAYLQMNSLKTEDTAVYYCTRARFYYSDYGYAMDYWGQGTLVTVSS | 0.22 |
| h10A11 (IGKV4-1/IGHV3-73 R52K): humanized 10A11 heavy chain CDR point mutant (antibody, V domains shown) VL: DIVMTQSPDSLAVSLGERATINCRSSKSLLHSNGNTYLYWYQQKPGQPPKLLIYRMSNLASGVPDRFSGSGSGTDFTLTISSLQAEDVAVYYCMQHLEYPLTFGQGTKLEIKRT VH: EVQLVESGGGLVQPGGSLKLSCAASGFAFNTYALYWVRQASGKGLEWVGRIKSKSNNYATYYADSVKDRFTISRDDSKNTAYLQMNSLKTEDTAVYYCTRARFYYSDYGYAMDYWGQGTLVTVSS | n.d. (The n.d. (=not detectable) indicates that the IC50 value of the mutant is 10 nM or more) |
| h10A11 (IGKV4-1/IGHV3-73 S52aT): humanized 10A11 heavy chain CDR point mutant (antibody, V domains shown) VL: DIVMTQSPDSLAVSLGERATINCRSSKSLLHSNGNTYLYWYQQKPGQPPKLLIYRMSNLASGVPDRFSGSGSGTDFTLTISSLQAEDVAVYYCMQHLEYPLTFGQGTKLEIKRT VH: EVQLVESGGGLVQPGGSLKLSCAASGFAFNTYALYWVRQASGKGLEWVGRIRTKSNNYATYYADSVKDRFTISRDDSKNTAYLQMNSLKTEDTAVYYCTRARFYYSDYGYAMDYWGQGTLVTVSS | 0.22 |
| h10A11 (IGKV4-1/IGHV3-73 K52bR): humanized 10A11 heavy chain CDR point mutant (antibody, V domains shown) VL: DIVMTQSPDSLAVSLGERATINCRSSKSLLHSNGNTYLYWYQQKPGQPPKLLIYRMSNLASGVPDRFSGSGSGTDFTLTISSLQAEDVAVYYCMQHLEYPLTFGQGTKLEIKRT VH: EVQLVESGGGLVQPGGSLKLSCAASGFAFNTYALYWVRQASGKGLEWVGRIRSRSNNYATYYADSVKDRFTISRDDSKNTAYLQMNSLKTEDTAVYYCTRARFYYSDYGYAMDYWGQGTLVTVSS | 0.47 |
| h10A11 (IGKV4-1/IGHV3-73 S52cT): humanized 10A11 heavy chain CDR point mutant (antibody, V domains shown) VL: DIVMTQSPDSLAVSLGERATINCRSSKSLLHSNGNTYLYWYQQKPGQPPKLLIYRMSNLASGVPDRFSGSGSGTDFTLTISSLQAEDVAVYYCMQHLEYPLTFGQGTKLEIKRT VH: EVQLVESGGGLVQPGGSLKLSCAASGFAFNTYALYWVRQASGKGLEWVGRIRSKTNNYATYYADSVKDRFTISRDDSKNTAYLQMNSLKTEDTAVYYCTRARFYYSDYGYAMDYWGQGTLVTVSS | 0.53 |
| h10A11 (IGKV4-1/IGHV3-73 N53Q): humanized 10A11 heavy chain CDR point mutant (antibody, V domains shown) VL: DIVMTQSPDSLAVSLGERATINCRSSKSLLHSNGNTYLYWYQQKPGQPPKLLIYRMSNLASGVPDRFSGSGSGTDFTLTISSLQAEDVAVYYCMQHLEYPLTFGQGTKLEIKRT VH: EVQLVESGGGLVQPGGSLKLSCAASGFAFNTYALYWVRQASGKGLEWVGRIRSKSQNYATYYADSVKDRFTISRDDSKNTAYLQMNSLKTEDTAVYYCTRARFYYSDYGYAMDYWGQGTLVTVSS | 0.03 |
| h10A11 (IGKV4-1/IGHV3-73 Y55F): humanized 10A11 heavy chain CDR point mutant (antibody, V domains shown) VL: DIVMTQSPDSLAVSLGERATINCRSSKSLLHSNGNTYLYWYQQKPGQPPKLLIYRMSNLASGVPDRFSGSGSGTDFTLTISSLQAEDVAVYYCMQHLEYPLTFGQGTKLEIKRT VH: EVQLVESGGGLVQPGGSLKLSCAASGFAFNTYALYWVRQASGKGLEWVGRIRSKSNNFATYYADSVKDRFTISRDDSKNTAYLQMNSLKTEDTAVYYCTRARFYYSDYGYAMDYWGQGTLVTVSS | 0.47 |
| h10A11 (IGKV4-1/IGHV3-73 A56V): humanized 10A11 heavy chain CDR point mutant (antibody, V domains shown) VL: DIVMTQSPDSLAVSLGERATINCRSSKSLLHSNGNTYLYWYQQKPGQPPKLLIYRMSNLASGVPDRFSGSGSGTDFTLTISSLQAEDVAVYYCMQHLEYPLTFGQGTKLEIKRT VH: EVQLVESGGGLVQPGGSLKLSCAASGFAFNTYALYWVRQASGKGLEWVGRIRSKSNNYVTYYADSVKDRFTISRDDSKNTAYLQMNSLKTEDTAVYYCTRARFYYSDYGYAMDYWGQGTLVTVSS | 0.55 |
| h10A11 (IGKV4-1/IGHV3-73 T57S): humanized 10A11 heavy chain CDR point mutant (antibody, V domains shown) VL: DIVMTQSPDSLAVSLGERATINCRSSKSLLHSNGNTYLYWYQQKPGQPPKLLIYRMSNLASGVPDRFSGSGSGTDFTLTISSLQAEDVAVYYCMQHLEYPLTFGQGTKLEIKRT VH: EVQLVESGGGLVQPGGSLKLSCAASGFAFNTYALYWVRQASGKGLEWVGRIRSKSNNYASYYADSVKDRFTISRDDSKNTAYLQMNSLKTEDTAVYYCTRARFYYSDYGYAMDYWGQGTLVTVSS | 0.49 |
| h10A11 (IGKV4-1/IGHV3-73 Y58F): humanized 10A11 heavy chain CDR point mutant (antibody, V domains shown) VL: DIVMTQSPDSLAVSLGERATINCRSSKSLLHSNGNTYLYWYQQKPGQPPKLLIYRMSNLASGVPDRFSGSGSGTDFTLTISSLQAEDVAVYYCMQHLEYPLTFGQGTKLEIKRT VH: EVQLVESGGGLVQPGGSLKLSCAASGFAFNTYALYWVRQASGKGLEWVGRIRSKSNNYATFYADSVKDRFTISRDDSKNTAYLQMNSLKTEDTAVYYCTRARFYYSDYGYAMDYWGQGTLVTVSS | 0.50 |
| h10A11 (IGKV4-1/IGHV3-73 Y59F): humanized 10A11 heavy chain CDR point mutant (antibody, V domains shown) VL: DIVMTQSPDSLAVSLGERATINCRSSKSLLHSNGNTYLYWYQQKPGQPPKLLIYRMSNLASGVPDRFSGSGSGTDFTLTISSLQAEDVAVYYCMQHLEYPLTFGQGTKLEIKRT VH: EVQLVESGGGLVQPGGSLKLSCAASGFAFNTYALYWVRQASGKGLEWVGRIRSKSNNYATYFADSVKDRFTISRDDSKNTAYLQMNSLKTEDTAVYYCTRARFYYSDYGYAMDYWGQGTLVTVSS | 0.03 |
| h10A11 (IGKV4-1/IGHV3-73 A60V): humanized 10A11 heavy chain CDR point mutant (antibody, V domains shown) VL: DIVMTQSPDSLAVSLGERATINCRSSKSLLHSNGNTYLYWYQQKPGQPPKLLIYRMSNLASGVPDRFSGSGSGTDFTLTISSLQAEDVAVYYCMQHLEYPLTFGQGTKLEIKRT VH: EVQLVESGGGLVQPGGSLKLSCAASGFAFNTYALYWVRQASGKGLEWVGRIRSKSNNYATYYVDSVKDRFTISRDDSKNTAYLQMNSLKTEDTAVYYCTRARFYYSDYGYAMDYWGQGTLVTVSS | 0.67 |
| h10A11 (IGKV4-1/IGHV3-73 D61E): humanized 10A11 heavy chain CDR point mutant (antibody, V domains shown) VL: DIVMTQSPDSLAVSLGERATINCRSSKSLLHSNGNTYLYWYQQKPGQPPKLLIYRMSNLASGVPDRFSGSGSGTDFTLTISSLQAEDVAVYYCMQHLEYPLTFGQGTKLEIKRT VH: EVQLVESGGGLVQPGGSLKLSCAASGFAFNTYALYWVRQASGKGLEWVGRIRSKSNNYATYYAESVKDRFTISRDDSKNTAYLQMNSLKTEDTAVYYCTRARFYYSDYGYAMDYWGQGTLVTVSS | 0.25 |
| h10A11 (IGKV4-1/IGHV3-73 S62T): humanized 10A11 heavy chain CDR point mutant (antibody, V domains shown) VL: DIVMTQSPDSLAVSLGERATINCRSSKSLLHSNGNTYLYWYQQKPGQPPKLLIYRMSNLASGVPDRFSGSGSGTDFTLTISSLQAEDVAVYYCMQHLEYPLTFGQGTKLEIKRT VH: EVQLVESGGGLVQPGGSLKLSCAASGFAFNTYALYWVRQASGKGLEWVGRIRSKSNNYATYYADTVKDRFTISRDDSKNTAYLQMNSLKTEDTAVYYCTRARFYYSDYGYAMDYWGQGTLVTVSS | 1.60 |
| h10A11 (IGKV4-1/IGHV3-73 V63L): humanized 10A11 heavy chain CDR point mutant (antibody, V domains shown) VL: DIVMTQSPDSLAVSLGERATINCRSSKSLLHSNGNTYLYWYQQKPGQPPKLLIYRMSNLASGVPDRFSGSGSGTDFTLTISSLQAEDVAVYYCMQHLEYPLTFGQGTKLEIKRT VH: EVQLVESGGGLVQPGGSLKLSCAASGFAFNTYALYWVRQASGKGLEWVGRIRSKSNNYATYYADSLKDRFTISRDDSKNTAYLQMNSLKTEDTAVYYCTRARFYYSDYGYAMDYWGQGTLVTVSS | 0.56 |
